The series is described as follows: collision cross section of modified peptide (TIMS, N2, iRT-aligned); higher = larger / more extended gas-phase ion. Put shortly:
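On a timsTOF Pro/HT (dda-PASEF, nitrogen, ~2.4 mbar), synthetic peptide pools were analysed after a 120-min nanoflow C18 separation at 60 °C and identified in MaxQuant. Three reference ions served for 1/K0 calibration, with run-wise alignment to the median iRT peptide deviation. Collision cross section comes from the Mason-Schamp equation, using the most abundant feature per charge state averaged over 1–3 technical replicates.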

The mark [1] stands for this setting: charge state: 2, modification: Malonyl.
The mark [2] stands for this setting: charge state: 2, modification: Butyryl.
[3] abbreviates: charge state: 2, modification: Citrullination (R).
Setting [4] is: charge state: 3, modification: Trimethyl (K).
The mark [5] stands for this setting: charge state: 3, modification: Methyl (R).
Where [6] appears, read: charge state: 3, modification: Butyryl.
The mark [7] stands for this setting: charge state: 2, modification: Succinyl.
[8] abbreviates: charge state: 3, modification: Succinyl.
Setting [9] is: charge state: 2, modification: Glutarylation.
The mark [10] stands for this setting: charge state: 2, modification: Crotonyl.
Where [11] appears, read: charge state: 2, modification: Dimethyl (K).
[12] abbreviates: charge state: 3, modification: Dimethyl (K).
Setting [13] is: charge state: 2, modification: Formyl.
The mark [14] stands for this setting: charge state: 3, modification: Formyl.
Where [15] appears, read: charge state: 3, modification: Malonyl.
Where [16] appears, read: charge state: 2, modification: Propionyl.
The mark [17] stands for this setting: charge state: 3, modification: Glutarylation.
The mark [18] stands for this setting: charge state: 2, modification: Phospho (Y).
The mark [19] stands for this setting: charge state: 2, modification: Methyl (K).
[20] abbreviates: charge state: 3, modification: Methyl (K).
Where [21] appears, read: charge state: 2, modification: Acetyl (K).
Where [22] appears, read: charge state: 3, modification: Acetyl (K).
[23] abbreviates: charge state: 3, modification: HexNAc (ST).

± gives the standard deviation.

In turn, VGTASVLQPVKK [_VGTASVLQPVK(Malonyl)K_] yielded a collision cross section under setting [1] of 381.57 ± 0.0073 Å².
Consider LQLEIDQKK [_LQLEIDQK(Butyryl)K_], for which the collision cross section under setting [2] is 370.32 ± 1.2 Å².
On to “FGDSRGGGGNFGPGPGSNFR [_FGDSR(Citrullination (R))GGGGNFGPGPGSNFR_]”, for which the collision cross section (charge state: 3, modification: Citrullination (R)) worked out at 490.23 ± 0.77 Å².
Under setting [3], “RGVGAGAIAK [_R(Citrullination (R))GVGAGAIAK_]” returned a collision cross section of 319.31 Å².
In turn, “GADFLVTEVENGGSLGSKK [_GADFLVTEVENGGSLGSK(Trimethyl (K))K_]” registered a collision cross section under setting [4] of 548.47 ± 1.1 Å².
In turn, “GETASKLQSEISR [_GETASK(Malonyl)LQSEISR_]” returned a collision cross section under setting [1] of 395.19 ± 0.023 Å².
On the same count and under the same terms, the value for “SLFFGGKGAPLQR [_SLFFGGK(Malonyl)GAPLQR_]” was 399.96 ± 0.61 Å².
Turning to IQQELQTAKK [_IQQELQTAK(Malonyl)K_], the collision cross section under setting [1] stood at 373.35 ± 6 Å².
Regarding “GRGLPGPAESLR [_GR(Methyl (R))GLPGPAESLR_]”, under setting [5], the collision cross section is 459.68 ± 1.5 Å².
Consider SKHLQEQLNELK [_SK(Butyryl)HLQEQLNELK_], for which the collision cross section runs as follows: under setting [2], 422.39 ± 0.24 Å²; under setting [6], 490.06 ± 2.9 Å².
Take “DAIHFYNKSLAEHR [_DAIHFYNK(Butyryl)SLAEHR_]”: the collision cross section was 452.1 Å² under setting [2] and 511.38 ± 1.6 Å² under setting [6].
“ASDTSSETVFGKR [_ASDTSSETVFGK(Malonyl)R_]”: the collision cross section under setting [1] is reported as 387.3 ± 0.61 Å².
Take “GADFLVTEVENGGSLGSKK [_GADFLVTEVENGGSLGSK(Succinyl)K_]”: the collision cross section reads like this: under setting [7], 480.22 ± 1.1 Å²; under setting [8], 554.56 Å².
With “VFSIISSEKELK [_VFSIISSEK(Gluratylation)ELK_]”, the collision cross section under setting [9] turned out to be 415.44 ± 1.1 Å².
On to SKHLQEQLNELK [_SK(Crotonyl)HLQEQLNELK_], for which the collision cross section is, setting by setting: under setting [10], 421.79 ± 0.28 Å²; (charge state: 3, modification: Crotonyl) 491.86 ± 3.7 Å².
“TVSKVDDFLANEAK [_TVSK(Dimethyl (K))VDDFLANEAK_]”: the collision cross section by setting is: under setting [11], 415.63 Å²; under setting [12], 482.42 ± 2.9 Å².
Turning to AGQKLIDVNHYAK [_AGQK(Formyl)LIDVNHYAK_], the collision cross section reads like this: under setting [13], 428.61 ± 0.79 Å²; under setting [14], 474.19 ± 2.1 Å².
As for “AGQKLIDVNHYAK [_AGQK(Succinyl)LIDVNHYAK_]”, the collision cross section turned out to be 435.59 ± 1.1 Å² under setting [7] and 483.35 ± 2.9 Å² under setting [8].
For “VPTTEKPTVTVNFR [_VPTTEK(Dimethyl (K))PTVTVNFR_]”, under setting [12], the collision cross section worked out at 496.28 ± 1.7 Å².
“AAINQKLIETGER [_AAINQK(Dimethyl (K))LIETGER_]” came in with a collision cross section under setting [11] of 413.1 ± 1.4 Å² and a collision cross section under setting [12] of 468.56 ± 2.6 Å².
Consider “TVSKVDDFLANEAK [_TVSK(GlyGly (K))VDDFLANEAK_]”, for which the collision cross section runs as follows: (charge state: 2, modification: GlyGly (K)) 429.63 ± 1.4 Å²; (charge state: 3, modification: GlyGly (K)) 494.01 ± 1.9 Å².
Consider “ASDTSSETVFGKR [_ASDTSSETVFGK(Butyryl)R_]”, for which the collision cross section is, setting by setting: under setting [2], 403.53 ± 0.74 Å²; under setting [6], 479.86 ± 1.9 Å².
“YEQEHAAIQDKLFQVAK [_YEQEHAAIQDK(Malonyl)LFQVAK_]” displayed a collision cross section under setting [15] of 515.74 ± 1.8 Å².
As for GAEKTEVAEPR [_GAEK(Propionyl)TEVAEPR_], the collision cross section under setting [16] worked out at 373.13 ± 6.5 Å².
Turning to “ISSNFSSIIAEKLR [_ISSNFSSIIAEK(Succinyl)LR_]”, the collision cross section under setting [7] amounted to 432.83 ± 0.84 Å² and the collision cross section under setting [8] is 512.74 Å².
For the substance SSFAYKDQNENR [_SSFAYK(Malonyl)DQNENR_], the collision cross section under setting [1] amounted to 401.56 ± 0.03 Å².
Regarding “SNEEGSEEKGPEVR [_SNEEGSEEK(Dimethyl (K))GPEVR_]”, the collision cross section is, setting by setting: under setting [11], 393.74 ± 1.1 Å²; under setting [12], 467.17 ± 0.73 Å².
“SGKFTQQDIDEAK [_SGK(Crotonyl)FTQQDIDEAK_]” showed a collision cross section under setting [10] of 419.28 ± 0.55 Å².
As to “TQAYQDQKPGTSGLR [_TQAYQDQK(Malonyl)PGTSGLR_]”, the collision cross section amounted to 430.62 ± 0.59 Å² under setting [1] and 484.2 Å² under setting [15].
As for GEVQVSDKER [_GEVQVSDK(Formyl)ER_], the collision cross section under setting [13] worked out at 353.55 ± 2.5 Å².
Substance PGNSGIR [_P(Hydroxyproline)GNSGIR_] displayed a collision cross section (charge state: 2, modification: Hydroxyproline) of 280.46 ± 3.1 Å².
ALLQAKASGK [_ALLQAK(Propionyl)ASGK_] registered a collision cross section under setting [16] of 350.75 ± 0.49 Å².
Take “INNFSADIKDSK [_INNFSADIK(Gluratylation)DSK_]”: the collision cross section under setting [9] is on record as 404.4 ± 4.7 Å² and the collision cross section under setting [17] came out at 469.07 Å².
SGFGKFER [_SGFGK(Dimethyl (K))FER_] had a collision cross section under setting [11] of 334.57 ± 1.1 Å².
Take DYSVTANSK [_DY(Phospho (Y))SVTANSK_]: under setting [18], the collision cross section was found to be 332.04 ± 0.69 Å².
Under setting [7], VGEFSGANKEK [_VGEFSGANK(Succinyl)EK_] came in with a collision cross section of 357.27 ± 0.73 Å².
Turning to “GFALVGVGSEASSKK [_GFALVGVGSEASSK(Methyl (K))K_]”, the collision cross section amounted to 437.53 ± 2.3 Å² under setting [19] and 496.87 ± 4 Å² under setting [20].
Under setting [1], “STGLELETPSLVPVKK [_STGLELETPSLVPVK(Malonyl)K_]” returned a collision cross section of 445.74 ± 0.66 Å².
For the substance “SKLLFSNTAAQK [_SK(Gluratylation)LLFSNTAAQK_]”, the collision cross section under setting [9] is on record as 403.03 ± 0.5 Å².
SLEEEGAAHSGKR [_SLEEEGAAHSGK(Formyl)R_] came in with a collision cross section under setting [13] of 409.43 ± 1.8 Å² and a collision cross section under setting [14] of 472.26 ± 2.9 Å².
As to “ITESVAETAQTIKK [_ITESVAETAQTIK(Trimethyl (K))K_]”, the collision cross section runs as follows: (charge state: 2, modification: Trimethyl (K)) 451.09 ± 1 Å²; under setting [4], 496.11 ± 2.8 Å².
The substance LYLPVQNK [_LY(Nitro (Y))LPVQNK_] registered a collision cross section (charge state: 2, modification: Nitro (Y)) of 340.84 ± 0.55 Å².
In turn, “VDIDAPDVSIEGPDAKLK [_VDIDAPDVSIEGPDAK(Gluratylation)LK_]” displayed a collision cross section under setting [9] of 469.43 ± 1.5 Å².
Substance “TAIQAAGYPDK [_TAIQAAGY(Phospho (Y))PDK_]” came in with a collision cross section under setting [18] of 361.65 ± 9.9 Å².
As to ASNAAVKLAESK [_ASNAAVK(Butyryl)LAESK_], the collision cross section under setting [2] was determined as 375.52 ± 1.2 Å².
Take LTSLNVKYNNDK [_LTSLNVK(Crotonyl)YNNDK_]: the collision cross section under setting [10] was determined as 414.39 ± 1.1 Å².
On to “VLATQPGPGRGR [_VLATQPGPGR(Methyl (R))GR_]”, for which the collision cross section stood at 376.85 ± 0.74 Å² (charge state: 2, modification: Methyl (R)) and 455.74 ± 9.5 Å² under setting [5].
VNALKNLQVK [_VNALK(Crotonyl)NLQVK_]: the collision cross section under setting [10] is 376.57 ± 0.8 Å².
“LGVATVAKGVCGACK [_LGVATVAK(Malonyl)GVCGACK_]”: the collision cross section is, setting by setting: under setting [1], 416.08 ± 0.71 Å²; under setting [15], 487.74 Å².
Regarding “TTGFYSGFSEVAEKR [_TTGFYSGFSEVAEK(Acetyl (K))R_]”, the collision cross section came out at 434.33 ± 1.7 Å² under setting [21] and 508.12 ± 0.12 Å² under setting [22].
For the substance “SYISSQTNDTHK [_SYIS(HexNAc (ST))SQTNDTHK_]”, under setting [23], the collision cross section was 474.05 ± 0.17 Å².
Consider SSDLTDRVK [_S(HexNAc (ST))SDLTDRVK_], for which the collision cross section is 362.74 ± 0.12 Å² (charge state: 2, modification: HexNAc (ST)) and 449.63 ± 1.1 Å² under setting [23].
Take “LQEKVESAQSEQK [_LQEK(Acetyl (K))VESAQSEQK_]”: the collision cross section reads like this: under setting [21], 412.85 ± 1.8 Å²; under setting [22], 502.13 ± 0.084 Å².
On to “AGPNASIISLKSDK [_AGPNASIISLK(Crotonyl)SDK_]”, for which the collision cross section under setting [10] is listed as 412.97 ± 0.55 Å².
“RLDINTNTYTSQDLK [_RLDINTNTYTS(HexNAc (ST))QDLK_]” registered a collision cross section under setting [23] of 511.61 ± 0.96 Å².
In the case of “SLEEEGAAHSGKR [_SLEEEGAAHSGK(Gluratylation)R_]”, the collision cross section by setting is: under setting [9], 420.5 ± 2 Å²; under setting [17], 475.56 ± 1.7 Å².
For the substance “IPQEKCILQTDVK [_IPQEK(Methyl (K))CILQTDVK_]”, the collision cross section is, setting by setting: under setting [19], 433.64 ± 1.1 Å²; under setting [20], 464.28 ± 2.7 Å².
In the case of “LGSPSGKTGTCR [_LGSPSGK(Gluratylation)TGTCR_]”, the collision cross section under setting [9] is 369.43 ± 0.9 Å².
Regarding “VDIDVPDVNIEGPDAKLK [_VDIDVPDVNIEGPDAK(Methyl (K))LK_]”, the collision cross section under setting [19] came out at 457.57 ± 0.42 Å² and the collision cross section under setting [20] is 489.73 ± 3.2 Å².
For the substance “FLQEFYQDDELGKK [_FLQEFYQDDELGK(hydroxyisobutyryl)K_]”, the collision cross section runs as follows: (charge state: 2, modification: hydroxyisobutyryl) 452.81 ± 0.81 Å²; (charge state: 3, modification: hydroxyisobutyryl) 512.84 ± 1.6 Å².
“GRGAPPPPPSR [_GR(Citrullination (R))GAPPPPPSR_]” had a collision cross section under setting [3] of 339.21 ± 1.2 Å².
